Biological target: lysyl-tRNA synthetase (KRS), recombinant (human, UniProt Q15046 1-597)
Assay: SPR

lysyl-tRNA synthetase (KRS), recombinant, sequence (Q15046 whole entry): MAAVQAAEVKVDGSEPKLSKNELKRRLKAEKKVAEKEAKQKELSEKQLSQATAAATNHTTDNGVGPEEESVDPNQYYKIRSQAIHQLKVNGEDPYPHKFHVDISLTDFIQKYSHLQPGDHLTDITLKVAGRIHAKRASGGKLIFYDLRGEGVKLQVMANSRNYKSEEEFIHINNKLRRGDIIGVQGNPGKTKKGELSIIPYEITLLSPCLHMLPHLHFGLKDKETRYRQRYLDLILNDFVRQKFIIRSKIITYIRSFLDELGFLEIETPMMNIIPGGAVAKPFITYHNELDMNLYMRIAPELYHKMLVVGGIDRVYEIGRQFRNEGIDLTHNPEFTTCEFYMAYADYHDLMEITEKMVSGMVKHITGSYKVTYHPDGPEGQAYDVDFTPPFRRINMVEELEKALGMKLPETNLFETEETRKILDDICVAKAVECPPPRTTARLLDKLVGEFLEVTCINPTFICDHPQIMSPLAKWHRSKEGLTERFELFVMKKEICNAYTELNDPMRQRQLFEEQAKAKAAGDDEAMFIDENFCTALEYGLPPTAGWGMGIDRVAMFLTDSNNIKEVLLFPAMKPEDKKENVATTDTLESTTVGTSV

Kd: 110 nM
B1: anti-KRS scFv Biocon-K1 (scFv)
scFv: EVQLLESGGGLVQPGGSLRLSCAASGFTFSNYAMSWVRQAPGKGLEWVSGISPSSGDTYYADSVKGRFTISRDNSKNTLYLQMNSLRAEDTAVYYCAKGVWWYHPLLFDYWGQGTLVTVSSGGGGSGGGGSGGGGSQSVLTQPPSASGTPGQRVTISCSGSSSNIGNNTVSWYQQLPGTAPKLLIYANSKRPSGVPDRFSGSKSGTSASLAISGLRSEDEADYYCGAWDSSLSGYVFGGGTKLTVL

From US20160377619A1 (published 2016)
